B1: BMPRII-Fc chimera (soluble extracellular domain of BMP receptor II) (Fc fusion, human, UniProt Q13873 27-150, looked up)
chain: SQNQERLCAFKDPYQQDLGIGESRISHENGTILCSKGSTCYGLWEKSKGDINLVKQGCWSHIGDPQECHYEECVVTTTPPSIQNGTYRFCCCSTDLCNVNFTENFPPPDTTPLSPPHSFNRDET
B2: BMP-7 growth factor dimer (ligand, human, UniProt P18075 293-431, looked up)
chain: STGSKQRSQNRSKTPKNQEALRMANVAENSSSDQRQACKKHELYVSFRDLGWQDWIIAPEGYAAYYCEGECAFPLNSYMNATNHAIVQTLVHFINPETVPKPCCAPTQLNAISVLYFDDSSNVILKKYRNMVVRACGCH

Assay [1] deals with BMP-7 prodomain-growth factor complex (UniProt P18075). Description: SPR. In general terms: In SPR one partner is held on a chip, and binding of the other changes the refractive index at the surface.
A further assay has as its target BMP-7 prodomain. Description: SPR.
In assay [2] the target is ActRIIA-Fc chimera (soluble extracellular domain of activin receptor IIA) (human) (UniProt P27037). Description: SPR.
Sequence of ActRIIA-Fc chimera (soluble extracellular domain of activin receptor IIA) (human) (P27037 20-135, change not shown): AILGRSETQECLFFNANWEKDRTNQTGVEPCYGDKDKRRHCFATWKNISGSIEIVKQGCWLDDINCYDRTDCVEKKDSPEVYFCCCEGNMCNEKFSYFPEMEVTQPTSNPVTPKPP
The target in assay [3] is BMPRII-Fc chimera (soluble extracellular domain of BMP receptor II) (human) (UniProt Q13873). Put plainly: SPR.
Assay [4] concerns the target B2. Put plainly: SPR.
The target in assay [5] is B1. Put plainly: AUC.

In assay [1], “ActRIIA-Fc chimera (soluble extracellular domain of activin receptor IIA) (from UniProt P27037 20-135) (Fc fusion)” registered a reduction of the response against immobilized BMP-7 gfd of 90%.
Usually koff stands for the first-order rate constant of dissociation. A lower koff goes with slow dissociation. One may read the kon as the second-order rate constant of association. A higher kon goes with fast association. In the assay with BMP-7 prodomain, “BMP-7 growth factor dimer (from UniProt P18075 293-431) (ligand)” returned a koff of 0.00209 s⁻¹ and a kon of 98700 M⁻¹ s⁻¹.
With “BMP-7 prodomain-growth factor complex (from UniProt P18075 293-431)”, in assay [2], the koff amounted to 0.00352 s⁻¹ and the kon came out at 265000 M⁻¹ s⁻¹. In assay [3], this molecule yielded a koff of 0.00213 s⁻¹ and a kon of 216000 M⁻¹ s⁻¹.
As to B1, the reduction of the response against immobilized BMP-7 gfd in assay [1] was 90%. In assay [4], this molecule gave a koff of 0.00298 s⁻¹ and an association rate constant (kon) of 625000 M⁻¹ s⁻¹.
For orientation: stoichiometry N means the number of molecules, sites or subunits per partner or assembly. As to B2, the “stoichiometry N” value in assay [5] came to 2 gfd per BMPRII-Fc dimer.

The values above are taken from paper PMC2705212 (Journal of molecular biology, 2008).
